Data reported in US20260109775A1 (Eli Lilly, published 2026).

What was measured:
[1] = biological target: Human CD137 expressed on stable human 293 cells (human, UniProt Q07011 24-255); assay: cell-based or functional assay
[2] = biological target: T1, Cynomolgus monkey CD137 expressed on stable human 293 cells (cynomolgus monkey); assay: flow cytometry on 293 cells expressing cynomolgus monkey CD137, antibody at 0.5 micrograms/mL, MFI against control IgG
T1 construct: whole, on cells; also called Cyno-CD137

Human CD137 expressed on stable human 293 cells, sequence (Q07011 24-255): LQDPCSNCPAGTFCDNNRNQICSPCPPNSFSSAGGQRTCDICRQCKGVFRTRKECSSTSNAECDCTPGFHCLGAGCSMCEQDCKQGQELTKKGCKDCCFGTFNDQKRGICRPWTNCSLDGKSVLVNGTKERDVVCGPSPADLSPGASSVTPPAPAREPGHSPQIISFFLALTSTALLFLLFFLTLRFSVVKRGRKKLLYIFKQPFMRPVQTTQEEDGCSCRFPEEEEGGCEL

B1: Antibody A2 (antibody, human IgG1, kappa)
heavy: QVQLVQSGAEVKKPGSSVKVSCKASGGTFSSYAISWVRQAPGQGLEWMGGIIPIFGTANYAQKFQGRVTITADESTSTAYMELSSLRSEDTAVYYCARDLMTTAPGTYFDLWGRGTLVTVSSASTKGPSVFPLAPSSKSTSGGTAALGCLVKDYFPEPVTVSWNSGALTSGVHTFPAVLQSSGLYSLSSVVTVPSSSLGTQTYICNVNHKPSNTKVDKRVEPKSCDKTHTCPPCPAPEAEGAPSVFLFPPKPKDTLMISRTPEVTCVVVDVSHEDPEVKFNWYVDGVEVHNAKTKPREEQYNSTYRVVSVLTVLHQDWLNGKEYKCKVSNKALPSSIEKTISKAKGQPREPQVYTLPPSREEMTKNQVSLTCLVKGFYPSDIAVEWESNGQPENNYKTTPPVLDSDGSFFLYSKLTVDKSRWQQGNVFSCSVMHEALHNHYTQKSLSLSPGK
light: IRMTQSPPSLSASVGDRVTITCQASQDIGNSLGWYQQKPGKAPKLVIFDASDLETGVPSRFSGSGSGTDFSLTISSLQPEDFATYYCQQGNSFPLTFGQGTRLEIKRTVAAPSVFIFPPSDEQLKSGTASVVCLLNNFYPREAKVQWKVDNALQSGNSQESVTEQDSKDSTYSLSSTLTLSKADYEKHKVYACEVTHQGLSSPVTKSFNRGEC
Question: B1 was tested. Which “NF-kappaB luciferase reporter, max activity” value (shortened to “NF-kappaB luciferase reporter”) [1] did it give?
Answer: Its value is 72.3%.

B2: BMS20H4.9 (antibody, human IgG4 S228P, kappa, V domains shown)
VH: QVQLQQWGAGLLKPSETLSLTCAVYGGSFSGYYWSWIRQSPEKGLEWIGEINHGGYVTYNPSLESRVTISVDTSKNQFSLKLSSVTAADTAVYYCARDYGPGNYDWYFDLWGRGTLVTVSS
VL: EIVLTQSPATLSLSPGERATLSCRASQSVSSYLAWYQQKPGQAPRLLIYDASNRATGIPARFSGSGSGTDFTLTISSLEPEDFAVYYCQQRSNWPPALTFGGGTKVEIKR
notes: Comparator antibody, previously described in U.S. Pat. No. 7,288,638
Question: How did the MFI ratio [2] turn out when B2 was run?
Answer: The MFI ratio was 0.94.

Question: What about the “NF-kappaB luciferase reporter” value [1] of the same binder?
Answer: The value was 115%.

B3: Antibody A1 (antibody, human IgG1, kappa)
heavy: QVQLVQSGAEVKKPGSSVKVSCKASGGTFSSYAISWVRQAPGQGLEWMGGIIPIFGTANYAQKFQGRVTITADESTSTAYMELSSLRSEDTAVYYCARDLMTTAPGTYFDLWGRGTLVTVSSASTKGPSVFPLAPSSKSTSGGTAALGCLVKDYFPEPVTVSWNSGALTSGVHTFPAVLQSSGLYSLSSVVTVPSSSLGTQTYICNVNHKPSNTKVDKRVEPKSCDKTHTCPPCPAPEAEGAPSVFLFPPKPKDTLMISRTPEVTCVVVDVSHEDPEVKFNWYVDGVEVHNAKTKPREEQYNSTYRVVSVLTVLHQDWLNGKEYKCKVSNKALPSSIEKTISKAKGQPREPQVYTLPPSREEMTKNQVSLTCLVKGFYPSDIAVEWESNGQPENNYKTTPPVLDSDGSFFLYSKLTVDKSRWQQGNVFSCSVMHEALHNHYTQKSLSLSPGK
light: AIRMTQSPPSLSASVGDRVTITCQASQDIGNSLGWYQQKPGKAPKLVIFDASDLETGVPSRFSGSGSGTDFSLTISSLQPEDFATYYCQQGNSFPLTFGQGTRLEIKRTVAAPSVFIFPPSDEQLKSGTASVVCLLNNFYPREAKVQWKVDNALQSGNSQESVTEQDSKDSTYSLSSTLTLSKADYEKHKVYACEVTHQGLSSPVTKSFNRGEC
Question: B3 was tested. Which “NF-kappaB luciferase reporter” value [1] did it give?
Answer: The value was 63.4%.
